Bridge positions count the residues as written; N and C are the ends. Square brackets hold non-standard residues; d marks the D form. Ends that are not written are not given here. Aib = CC(C)(N)C(=O)O
Each binder was assayed against human glucagon receptor (human, UniProt P47871 26-477) (assay: cell-based or functional assay).
Sequence of human glucagon receptor (P47871 26-477): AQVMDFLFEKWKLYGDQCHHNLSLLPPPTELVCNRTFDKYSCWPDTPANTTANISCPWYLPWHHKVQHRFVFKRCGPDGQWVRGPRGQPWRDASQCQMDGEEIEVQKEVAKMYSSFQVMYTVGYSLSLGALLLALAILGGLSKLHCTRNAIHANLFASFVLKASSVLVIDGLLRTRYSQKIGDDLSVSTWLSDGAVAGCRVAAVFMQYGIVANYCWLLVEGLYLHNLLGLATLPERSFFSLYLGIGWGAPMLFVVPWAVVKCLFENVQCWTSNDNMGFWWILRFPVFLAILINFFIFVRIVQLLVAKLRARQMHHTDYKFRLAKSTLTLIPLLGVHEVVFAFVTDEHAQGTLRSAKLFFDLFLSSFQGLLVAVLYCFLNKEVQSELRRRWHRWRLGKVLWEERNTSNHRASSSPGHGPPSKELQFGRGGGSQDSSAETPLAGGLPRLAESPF

| Binder | In vitro Activity (relative activity to SEQ ID NO: 1, %); cAMP assay, from EC50 |
| --- | --- |
| Y[Aib]QGTFTSDYSKYLDEKRAKEFVQWLMNTC (lactam 16-20) [glucagon derivative of SEQ ID NO: 12] | 56.3% |
| Y[Aib]QGTFTSDYSKYLDCRRAQVFVQWLMRT [glucagon derivative of SEQ ID NO: 16] | 4.2% |
| Y[Aib]QGTFTSDYSKYLDSCDAQDFVVWLINT [glucagon derivative of SEQ ID NO: 9] | < 0.1% |
| Y[Aib]QGTFTSDYSKYLDSCDAQDFVQWLINT [glucagon derivative of SEQ ID NO: 8] | < 0.1% |
| HSQGTFTSDYSKYLDSCEAQDFVQWLMNT [glucagon derivative of SEQ ID NO: 5] | 0.3% |
| YSQGTFTSDYSKYLDSCEADDFVQWLMNT [glucagon derivative of SEQ ID NO: 7] | < 0.1% |
| HSQGTFTSDYSKYLDCERAQDFVQWLMNT [glucagon derivative of SEQ ID NO: 3] | 6.1% |
| Y[Aib]QGTFTSDYSCYLDSRRAQDFVQWLMNT [glucagon derivative of SEQ ID NO: 13] | 5.2% |
| Y[Aib]QGTFTSDYSKYLDSCDADDFVVWLINT [glucagon derivative of SEQ ID NO: 10] | < 0.1% |
| Y[Aib]QGTFTSDYSKYLCEKRAQDFVVWLMNT [glucagon derivative of SEQ ID NO: 15] | 1.1% |
| Y[Aib]QGTFTSDYSKYLCEKRAKEFVQWLMNT (lactam 16-20) [glucagon derivative of SEQ ID NO: 19] | 12.1% |
| Y[Aib]QGTFTSDYSKYLDCKRAKEFVQWLMNT (not fully specified (bridges)) [glucagon derivative of SEQ ID NO: 14] | 18.1% |
| HSQGTFTSDYSKYLDSCEADDFVQWLMNT [glucagon derivative of SEQ ID NO: 6] | < 0.1% |
| Y[Aib]QGTFTSDYSKYLDEKCAKEFVQWLMNT (lactam 16-20) [glucagon derivative of SEQ ID NO: 21] | 57.8% |
| HSQGTFTSDYSKYLDSCDAQDFVQWLMNT [glucagon derivative of SEQ ID NO: 4] | < 0.1% |
| Y[Aib]QGTFTSDYSKYLDEKCAKEFVQWLMNT (not fully specified (bridges)) [glucagon derivative of SEQ ID NO: 11] | 4.6% |
| Y[Aib]QGTFTSDYSKYLDCVRAQDFVQWLMRT [glucagon derivative of SEQ ID NO: 17] | 23.2% |
| Y[Aib]QGTFTSDYSKYLDSRRACDFRLWLMNT [glucagon derivative of SEQ ID NO: 18] | < 0.1% |
| HSQGTFTSDYSKYLDCDRAQDFVQWLMNT [glucagon derivative of SEQ ID NO: 2] | 0.6% |
| Y[Aib]QGTFTSDYSKYLDECRAKEFVQWLMNT (lactam 16-20) [glucagon derivative of SEQ ID NO: 20] | 300% |

Now from value to binder:

| In vitro Activity (relative activity to SEQ ID NO: 1, %); cAMP assay, from EC50 | Binder |
| --- | --- |
| 0.3% | W[Aib]QGTFTSDYSKCLDERRAKDFVQWLMNT (lactam 16-20) [glucagon derivative of SEQ ID NO: 30] |
| 93.6% | Y[Aib]QGTFVSDYSKYLDECRAKDFVQWLMNT (lactam 16-20) [glucagon derivative of SEQ ID NO: 27] |
| 1% | W[Aib]QGTFTSDYSKYLDECRAKDFVQWLMNT (lactam 16-20) [glucagon derivative of SEQ ID NO: 26] |
| 3.7% | Y[Aib]QGTFVSDCSKYLDERRAKDFVQWLMNT (lactam 16-20) [glucagon derivative of SEQ ID NO: 39] |
| 167% | Y[Aib]QGTFCSDYSKYLDERRAKEFVQWLMNT (lactam 16-20) [glucagon derivative of SEQ ID NO: 38] |
| 17.7% | Y[Aib]QGTFTSDYSKYCDERRAKEFVQWLMNT (lactam 16-20) [glucagon derivative of SEQ ID NO: 35] |
| 9.9% | Y[Aib]QGTFTSDCSKYLDERRAKEFVQWLMNT (lactam 16-20) [glucagon derivative of SEQ ID NO: 36] |
| 46.9% | Y[Aib]QGTFTSDYSKYLDEKRAKCFVQWLMNT (lactam 16-20) [glucagon derivative of SEQ ID NO: 25] |
| 40.8% | Y[Aib]QGTFVSDYSKYLDERRAKDFVQWLMNTC (lactam 16-20) [glucagon derivative of SEQ ID NO: 40] |
| 58% | Y[Aib]QGTFTSDYSKCLDEKRAKEFVQWLMNT (lactam 16-20) [glucagon derivative of SEQ ID NO: 24] |
| 6.3% | Y[Aib]QGTFTSDYSKYLDCKRAKEFVQWLMNT (lactam 17-21) [glucagon derivative of SEQ ID NO: 31] |
| 5.2% | Y[Aib]QGTFTSDYSCYLDEKRAKEFVQWLMNT [glucagon derivative of SEQ ID NO: 45] |
| 108% | YXQGTFTSDYSKYLDSRRAQDFVQWLMNT (X at position 2 = aminoisobutyric acid (Aib)) [glucagon derivative of SEQ ID NO: 33] |
| 226% | Y[Aib]QGTFTSDYSKYLDERRAKEFVQWLMNTC (lactam 16-20) [glucagon derivative of SEQ ID NO: 37] |
| 75.4% | YXQGTFTSDYSKYLDSRRAQDFVQWLMNTC (X at position 2 = aminoisobutyric acid (Aib)) [glucagon derivative of SEQ ID NO: 44] |
| 1.6% | Y[Aib]QGTFTSDCSKYLDSRRAQDFVQWLMNT [glucagon derivative of SEQ ID NO: 43] |
| 45.2% | Y[Aib]QGTFCSDYSKYLDERRAKDFVQWLMNT (lactam 16-20) [glucagon derivative of SEQ ID NO: 41] |
| 37.9% | Y[Aib]QGTFCSDYSKYLDSRRAQDFVQWLMNT [glucagon derivative of SEQ ID NO: 42] |
| 76.8% | Y[Aib]QGTFTSDYSKYCDEKRAKEFVQWLMNT (lactam 16-20) [glucagon derivative of SEQ ID NO: 23] |
| 61.3% | Y[Aib]QGTFTSDYSKCLDERRAKDFVQWLMNT (lactam 16-20) [glucagon derivative of SEQ ID NO: 29] |
| < 0.1% | W[Aib]QGTFVSDYSKYLDECRAKDFVQWLMNT (lactam 16-20) [glucagon derivative of SEQ ID NO: 28] |
| 0.7% | SQGTFTSDYSKYLDECRAKEFVQWLMNT (lactam 15-19) [glucagon derivative of SEQ ID NO: 32] |
| 148% | Y[Aib]QGTFTSDYSKYLDEKRCKEFVQWLMNT (lactam 16-20) [glucagon derivative of SEQ ID NO: 22] |
| 0.2% | W[Aib]QGTFTSDYSKYCDERRAKEFVQWLMNT (lactam 16-20) [glucagon derivative of SEQ ID NO: 34] |
